Assay results taken from patent US20030120051A1 (SUGEN, published 2003).

Biological target: T1, rat CASPR/p190 (rat, UniProt P97846 21-1381)
T1 construct: Endogenous in GH3 cells and rat brain, or expressed from pCM190R in COS7 cells; read from membrane lysates; no cleavage site stated; also called Contactin ASsociated PRotein; 190 kDa protein
T1 sequence: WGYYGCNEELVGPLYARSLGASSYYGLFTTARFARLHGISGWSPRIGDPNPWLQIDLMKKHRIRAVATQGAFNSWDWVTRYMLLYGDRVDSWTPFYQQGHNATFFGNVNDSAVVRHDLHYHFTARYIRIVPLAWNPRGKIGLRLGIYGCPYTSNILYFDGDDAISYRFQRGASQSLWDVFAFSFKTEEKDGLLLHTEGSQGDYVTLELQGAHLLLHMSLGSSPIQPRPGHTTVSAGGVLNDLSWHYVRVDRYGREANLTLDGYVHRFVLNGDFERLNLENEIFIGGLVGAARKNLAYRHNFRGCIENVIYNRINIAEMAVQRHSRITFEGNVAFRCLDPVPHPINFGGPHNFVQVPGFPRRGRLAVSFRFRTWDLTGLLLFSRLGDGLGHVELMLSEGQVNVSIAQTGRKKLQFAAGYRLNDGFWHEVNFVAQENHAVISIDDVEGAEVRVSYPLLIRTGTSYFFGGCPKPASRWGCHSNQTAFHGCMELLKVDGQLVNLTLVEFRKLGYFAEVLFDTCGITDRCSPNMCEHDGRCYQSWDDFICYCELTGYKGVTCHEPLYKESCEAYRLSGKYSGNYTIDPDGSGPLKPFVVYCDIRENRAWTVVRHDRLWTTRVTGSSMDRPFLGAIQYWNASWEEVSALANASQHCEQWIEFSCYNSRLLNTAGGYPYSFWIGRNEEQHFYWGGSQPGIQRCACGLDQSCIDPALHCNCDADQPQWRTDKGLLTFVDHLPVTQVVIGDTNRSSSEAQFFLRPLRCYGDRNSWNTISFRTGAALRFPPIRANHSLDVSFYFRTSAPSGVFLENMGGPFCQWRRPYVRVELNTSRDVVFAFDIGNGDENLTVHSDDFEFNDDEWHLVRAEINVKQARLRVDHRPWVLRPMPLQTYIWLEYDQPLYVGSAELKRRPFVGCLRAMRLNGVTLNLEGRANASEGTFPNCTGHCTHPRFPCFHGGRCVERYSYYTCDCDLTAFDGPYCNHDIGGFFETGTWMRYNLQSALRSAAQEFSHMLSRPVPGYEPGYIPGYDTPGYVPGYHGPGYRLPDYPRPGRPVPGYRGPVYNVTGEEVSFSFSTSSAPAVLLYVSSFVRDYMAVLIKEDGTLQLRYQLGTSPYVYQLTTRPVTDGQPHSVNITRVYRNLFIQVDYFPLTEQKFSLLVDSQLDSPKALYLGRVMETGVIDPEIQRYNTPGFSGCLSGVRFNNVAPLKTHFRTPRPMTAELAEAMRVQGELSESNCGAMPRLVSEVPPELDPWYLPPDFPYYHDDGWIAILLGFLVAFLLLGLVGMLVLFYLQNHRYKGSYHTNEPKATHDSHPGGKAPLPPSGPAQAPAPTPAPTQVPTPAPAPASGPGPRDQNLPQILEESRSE
Assay: bioaffinity precipitation from membrane extracts of labeled GH3 cells

B1: βF-Fc (FNIII domain of RPTPβ fused to human IgG1-Fc) (Fc fusion)
chain: not shown
notes: domain: FNIII; also called the FNIII domain alone; fibronectin domain alone; not shown: human IgG1 Fc (vector pCNγ1)
  binding result: no binding
